Laboratory results as given in publication PMC12226364.

Biological target: GST-EPAC1 (purified recombinant)

shift of the AC50 of cAMP for EPAC1 GEF activity by RanBP2 ZFD (cAMP titration); maximal GEF activity also reduced: 10 fold
Substance: RanBP2 zinc finger domain (ZFD), 1171-1809 aa (from UniProt P49792 1171-1809) (domain or fragment)
